Here are results for 2 sequences from paper PMC12584617.

In the data set the test system is T1, NsrX (Alr1976) (Anabaena sp. strain PCC 7120), ORF:44a8eb4f.
T1 sequence: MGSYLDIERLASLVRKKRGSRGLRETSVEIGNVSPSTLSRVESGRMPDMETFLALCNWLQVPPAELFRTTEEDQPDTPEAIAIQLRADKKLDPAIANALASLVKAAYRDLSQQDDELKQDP
In words: EMSA. The following applies: 10 mM Bis-Tris-HCl pH 7.5, 40 mM KCl, 0.1 mg/mL BSA, 5% glycerol, 50 ng DNA, 50-100 ng ifpkn22 competitor, 30 min room temperature; NsrX +100 uM MnCl2 (also in …).

Consider “CATCTTGGAAACCAAGTTGCACAAACATCAGTAAGACAATAAAAGCAATGCCAGCTACAGCTATAAGAAAACGAATTTTCTGTTGGACTAGCTGTAGCCATGCTAAAGGAATTTTAAAATTCATATTGATTTTGTCAGTTGACAGTTGATAGTTGATAGTTGTCAGTTGACTAATGACAATTAAATTTGAATCGCTACATCAACTTGTAAGTTGGTCAAACGTCCTACCCGTTCGCTATCTGCG (double strand) [PhgdC]”, for which the binding entry is recorded as “binds”.

Turning to “GGCGTGTGGCTCTTGTTCTAGTAGTACAGCCACCTTAAAGATAGCGATTGAATCCAGATTACGCGATCGCATCAACCCCAGCCTAGTAGTAGAAGCAGTTTAGTTAACAGTTAACAGTAAACCGTTAACTAACACCCAAAAGAACTTTCACAACTACATAACGAACCCATCATGAACACTAATTCTACTGGTTTTTCTGTGGAGCGATCGCCCCCTCTTCGGCGACGTTCTACAAACCCCTCACAGCCATAGCTCAACAGGCGTGAGATCCAAACACAAAGACCGACCAACTAACCAACC (double strand) [PnifHDK]”, the binding entry is listed as “binds”.
